Data: publication PMC9695642, “Conservation of Importin α Function in Apicomplexans: Ivermectin and GW5074 Target Plasmodium falciparum Importin α and Inhibit Parasite Growth in Culture” (International Journal of Molecular Sciences, 2022)

Legend:
[1] = target: His-tagged TGS1-NLS-GFP (NLS of P. falciparum trimethylguanosine synthase fused to GFP) (Plasmodium falciparum); assay: AlphaScreen or HTRF; biotinylated IMPαs titrated against His-tagged NLS-GFPs (30 nM); apparent dissociation constant
[2] = target: His-tagged GCN5-NLS-GFP (NLS of T. gondii histone acetyltransferase GCN5 fused to GFP) (Toxoplasma gondii); assay: as above

B1: Plasmodium falciparum importin α, biotinylated GST fusion protein (natural protein)
chain: MDRRIEARRKEFKKNCDDTRRKREDLVVQIRKQQRECQLESKRAMVMANIGFEENNTYNLNYAKGNQNDSTNDSIYNTSSNNSSNTLEMLKKIPTLAIGVRSNEYVTQLNSTRELRKLLSIEKGPPIQEVINSGVVPYIVEFLKYDDKTDLQFEAAWVITNIASGSQEQTKVVIDNNAVPHLVRLLSSEKEDVCEQAVWALGNIAGDSAECREYVLNQNSLPLLLKILRTSHKRTLIRNAAWTLSNLCRGKPAPKFEIVSKALPTLAALIYNDDEEILTDACWTLSYLSDGSNENINSVLDAGVAERVVELLSHCSFLVQTPALRTVGNIVTGDDLQTDVVVKLGAVQKLSCLLNSSKKSIKKEACWALSNITAGNISQIQAVIDNNVIPQLINILMKEDFEVRKEAAWAISNASSGGSELQIEYLVECGAIHSLSNLLDVEDANIISVTLEGLENILEMGENKKLRDNLPTNPYVHLFEECDSVHKIDALQDRKVDNICNKAWKILYKYFPFVINNELNNAQIPLNNVFANTEDAVLNKDFTFD
modifications: biotin (Sulfo-NHS-Biotin reagent)
B1 gave a Kd [1] of 6.6 nM and a Kd [2] of 2.5 nM.
